Numbering of substitutions follows the chain as printed. Where two headings read alike, the source gives them in different places.
Experiments:
Assay in all cases: ELISA
[1] = target: T1, recombinant human Axl-Fc protein (R and D Systems, cat N° 154-AL) (UniProt P30530 26-451)
[2] = target: T1, recombinant human Axl-Fc protein (R and …); remark: listed apart in the source
[3] = target: T1, recombinant human Axl-Fc protein (R and …); remark: listed apart in the source

T1 sequence (P30530 26-451 D266N): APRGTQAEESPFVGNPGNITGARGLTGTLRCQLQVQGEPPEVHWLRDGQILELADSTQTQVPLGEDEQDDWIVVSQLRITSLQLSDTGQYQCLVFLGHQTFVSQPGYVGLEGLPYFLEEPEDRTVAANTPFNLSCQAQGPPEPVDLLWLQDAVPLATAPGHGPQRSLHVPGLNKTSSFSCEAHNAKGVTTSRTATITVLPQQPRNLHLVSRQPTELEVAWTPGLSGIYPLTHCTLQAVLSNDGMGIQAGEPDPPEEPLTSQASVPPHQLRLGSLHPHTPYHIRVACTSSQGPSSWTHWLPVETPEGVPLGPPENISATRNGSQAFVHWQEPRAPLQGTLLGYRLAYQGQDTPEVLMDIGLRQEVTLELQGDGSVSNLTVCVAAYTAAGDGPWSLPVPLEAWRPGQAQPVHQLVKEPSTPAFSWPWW

B1: 110D7 anti-Axl monoclonal antibody (antibody, V domains shown)
VH: EVKLVESGGGLVQPGGSLKLSCATSGFTFSDYYMYWVRQTPEKRLEWVAYISNGGGSTYYPDTVKGRFTMSRDNAKNTLYLQMSRLKSEDTAMYYCARLSFYAMDYWGQGTSVTVSS
VL: DIVMTQSHKFMSTSVGDRVSITCKASQDVTTAVAWYQQKPGQSPKLLIYWASTRHTGVPDRFTGSGSGTDYTLTISSVQAEDLALYYCQQHYRIPFTFGSGTKLEIK
[1]
  EC50: 1.35 nM

B2: 1024G11 anti-Axl monoclonal antibody (antibody, V domains shown)
VH: EVKLVESGGGLVQPGGSLNLSCAASGFTFSSYSMSWVRQTPEKRLEWVAFISNGGGRTYYPDTVKGRFTFSRDNARNTLYLQMSSLNSEDTAMYFCARGTTESYYAMDYWGQGTSVTVSS
VL: B1 VL with T30I, Y87F, Y92L, R93S, I94T, F96L, S100A, I106L
[2]
  EC50: 3.57 nM

B3: 1003A2 anti-Axl monoclonal antibody (antibody, V domains shown)
VH: B2 VH with N19K, S30N, F50Y, V64I, F70L, A75D, N87K, F95Y, M107L
VL: B1 VL with V15L, V19I, T30I, T72N, Y92F, R93S, I94T, F96L, S100A, I106L
[3]
  EC50: 2.35 nM

From US20160046725A1 (published 2016)
